Marks after values point to notes of the source that are not given here.
Tests used:
[1] = system: angiogenesis of chicken embryo chorioallantoic membrane; assay: Chicken embryo chorioallantoic membrane (CAM) angiogenesis assay; type: in vivo; details: for Blood vessel number / PI: CAM, 72 hours
From the text: In this study, CAM assay was used to investigate the activity of fusion protein I, protein II, protein III, protein IV, and protein V to inhibit angiogenesis in vivo. The study has shown that the biosynthesis rate of collagen reached the maximum on the 8th to 11th day of chicken embryo development, which was the most vigorous stage of angiogenesis, and the body's immune system had not yet been fully established at that time, and thus the chicken embryos developed to the 8th day was selected to be administered. […] The following steps were used.
(1) The White Leghorn chicken embryos on day 6 were cultured in a 37° C. incubator at 60%-70% humidity for two days.
(2) A 1.0 cm×1.0 cm window was drilled above the chicken embryo air sac, and the inner membrane was torn off with forceps to expose the chorioallantoic membrane. Lens paper having a diameter of 5 mm was used as a loading carrier, and was placed on the chorioallantoic membrane of the chicken embryo air sac. Filter paper with PBS was used as a blank group, and the administration group was added with different doses of fusion protein.
(3) The chicken embryo air sac was sealed with a sterile transparent tape, and after culturing at 37° C. for 72 hours, the chicken embryo air sac was opened, and a fixative (formaldehyde:acetone=1:1) was added for fixation for 15 minutes. The chorioallantoic membrane to which the lens paper was adhered was taken out, the distribution of the new blood vessels was observed, and the new blood vessels were counted and photographed. Five replicates were set for each dose and the results were statistically analyzed.

[2] = system: IL-1β production by mouse peritoneal macrophages; assay: IL-1β production by mouse peritoneal macrophages (ELISA); type: cell-based
Protocol: (1) IL-1β production: mice were intraperitoneally injected with 1 mL of broth medium containing 6% starch, and three days later, the mouse peritoneal macrophages were aseptically taken, washed twice with a 1640 medium, and the cell concentration was adjusted to 2×10^6 cells/mL, inoculated into a 24-well culture plate at 1 mL/well, incubated for 3 h in a cell incubator, and shaken once every 30 min, so that the cells were allowed to adhere sufficiently. Then, the cells were washed twice with a culture liquid to remove un-adhered cells. […] The supernatant was taken as a sample for testing activity of IL-1β.
(2) Determination of IL-1β content: the detection was performed by using mouse IL-1β enzyme-linked immunosorbent assay kit from R&D company. According to the instructions of the kit, the procedures were as follows: the reaction well for the test samples and different concentrations of standards were sealed with sealing tapes, respectively, incubation was performed at 37° C. for 90 min; the plate was washed four times; a biotinylated antibody working solution (100 μL/well) was added, the reaction well was sealed with sealing tapes, and incubation was performed at 37° C. for 60 min; the plate was washed four times; an enzyme conjugate working solution (100 μL/well) was added, the reaction well was sealed with sealing tapes, incubation was performed at 37° C. for 30 min; the plate was washed four times; a developer (100 μL/well) was added, incubation was performed at 37° C. for 10 to 20 min, a stop solution (100 μL/well) was added and mixed and the OD450 value was measured.

[3] = system: retinal blood vessels in OIR mice; assay: Retinal blood vessels in OIR mice; type: in vivo; details: dose 64 μg, injected into the vitreous body on day 13, evaluated on day 17
From the text: Establishment of the OIR model: young mice and their mothers were exposed to 75% hyperoxic environment from day 7 to day 12 after birth of C57/B16 mice so that capillaries in the central retina rapidly disappeared. On day 12, the mice were returned to indoor air and the retinal blood vessels exposed to hyperoxia rapidly disappeared, which caused extensive abnormal neovascularization, and the central part of the retina remained largely avascular for a long time. After the blood vessels disappeared completely, the fusion protein (administration group, the doses of fusion protein I, protein II, protein III, protein IV, and protein V were all 64 μg) or physiological saline (negative group) was injected into the vitreous body on day 13. Retinal vessels were evaluated on day 17 (labeled as unclosed vessels, […] of Texas Red-labeled tomato lectin was injected into the left ventricle and cycled for 5 minutes).

[4] = system: melanoma cell line B16F10; assay: MTT assay, proliferation of melanoma cell B16F10; type: cell-based
Protocol: The MTT assay was used to detect the inhibitory effect of the integrin blocker fusion protein obtained in Example 1 on the proliferation of various tumor cells, including melanoma cell B16F10, gastric cancer cell MGC-803, lung cancer cell A549, liver cancer cell Hep-G2, breast cancer cell MDA-MB-231, colon cancer cell HCT-116, human glioma U87, and cervical cancer cell Hela.
The tumor cells were cultured in a 5% CO2 incubator at 37° C. to a density of 90% or more, and collected by trypsinization. The cells were resuspended in the culture liquid and counted under a microscope. The cell concentration was adjusted to 3.0×10^4 cells/mL. The cell suspension was inoculated into a 96-well plate at 100 μL per well and cultured overnight in a 5% CO2 incubator at 37° C. […] After the cells were fully adhered, each dilution was added to a 96-well plate at 100 μL per well, respectively. […] 20 μL of 5 mg/mL MTT was added to each well of a 96-well plate, and incubation was continued for 4 hours. The medium was aspirated and 100 μL of DMSO per well were added to dissolve. The absorbance was measured at 570 nm with a microplate reader with a reference wavelength of 630 nm, and the proliferation inhibition (PI) was calculated. The formula is as follows: […]
where Ntest is the OD value of the test group and Ncontrol is the OD value of the blank control group.
The test was repeated 5 times independently. The results obtained from the test were calculated as mean±SD, and statistical t-test was performed. P<0.05 was considered as a significant difference, and P<0.01 was considered as an extremely significant difference.

B1: Protein II: IgG2-Fc linked to antiangiogenesis polypeptide EDSM-Y via a flexible linker; SEQ ID NO: 17 (protein)
chain: ERKCCVECPPCPAPPVAGPSVFLFPPKPKDTLMISRTPEVTCVVVDVSHEDPEVQFNWYVDGVEVHNAKTKPREEQFNSTFRVVSVLTVVHQDWLNGKEYKCKVSNKGLPAPIEKTISKTKGQPREPQVYTLPPSREEMTKNQVSLTCLVKGFYPSDISVEWESNGQPENNYKTTPPMLDSDGSFFLYSKLTVDKSRWQQGNVFSCSVMHEALHNHYTQKSLSLSPGKGGGGSGGGGSGGGGSFQPVLHLVALNSPLSGGMRGIRGADFQCFQQARAVGLAGTFRAGGGGRGD
[1]; 8 μg
  Blood vessel number: 102 ± 10
  PI: 17.07%
[1]; 32 μg
  Blood vessel number: 83 ± 11
  PI: 32.52%
[1]; 128 μg
  Blood vessel number: 66 ± 7
  PI: 46.34%
[1]; high dose
  inhibitory effect on angiogenesis of CAM: ~50%
[2]; dose 8 μg/mL
  IL-1β: 746.38 ± 16.59 pg/mL
  PI (%): 11.85%
[2]; dose 32 μg/mL
  IL-1β: 596.02 ± 19.97 pg/mL
  PI (%): 29.61%
[2]; dose 128 μg/mL
  IL-1β: 440.56 ± 11.38 pg/mL
  PI (%): 47.97%
[2]; in words
  inhibition of IL-1β production: could significantly inhibit IL-1β production
[3]
  Area (mm^2) occupied by neovascular clusters: 0.146 ± 0.011* mm^2
  Reduce (%): 30.81%
[3]; listed as protein II
  Reduce (%): 30.81%
[4]; dose 1 μg/mL
  A570 nm/A630 nm: 1.1137 ± 0.0370
  PI (%): 11.17%
[4]; dose 2 μg/mL
  A570 nm/A630 nm: 1.0250 ± 0.0230
  PI (%): 18.24%
[4]; dose 4 μg/mL
  A570 nm/A630 nm: 0.8986 ± 0.0731
  PI (%): 28.32%
[4]; dose 8 μg/mL
  A570 nm/A630 nm: 0.7243 ± 0.0421
  PI (%): 42.23%
[4]; dose 16 μg/mL
  A570 nm/A630 nm: 0.6400 ± 0.0661
  PI (%): 48.95%
[4]; dose 32 μg/mL
  A570 nm/A630 nm: 0.5034 ± 0.0286
  PI (%): 59.85%
[4]; dose 64 μg/mL
  A570 nm/A630 nm: 0.3867 ± 0.0195
  PI (%): 69.16%
[4]; dose 128 μg/mL
  PI (%): 76.59%
[4]; dose 256 μg/mL
  A570 nm/A630 nm: 0.1777 ± 0.0212
  PI (%): 85.83%

— patent publication US11407811B2, “Fusion protein, preparation method therefor and use thereof” (JIANGSU RONGTAI BIOTECH CO., LTD., priority 2017, dated 2022)
